The text below walks through data of publication PMC9500918, “Extended N-Terminal Acetyltransferase Naa50 in Filamentous Fungi Adds to Naa50 Diversity” (International Journal of Molecular Sciences, 2022).

Test in all cases: colorimetric DTNB acetylation assay, Michaelis-Menten
What all share (conditions): 1.5 mM MVNALE peptide, 30 °C, reaction buffer pH 7.5

Substrate in data set [1]: CC(=O)SCCNC(=O)CCNC(=O)[C@H](O)C(C)(C)COP(=O)(O)OP(=O)(O)OC[C@H]1O[C@@H](n2cnc3c(N)ncnc32)[C@H](O)[C@@H]1OP(=O)(O)O
Type of data set: biochemical, Thermochaetoides thermophila. An excerpt: colorimetric DTNB acetylation assay, Michaelis-Menten on CtNaa50_82-289 (GNAT)

Substrate in data set [2]: CC(=O)SCCNC(=O)CCNC(=O)[C@H](O)C(C)(C)COP(=O)(O)OP(=O)(O)OC[C@H]1O[C@@H](n2cnc3c(N)ncnc32)[C@H](O)[C@@H]1OP(=O)(O)O
Type of data set: biochemical, Thermochaetoides thermophila. The source holds these as a separate data set.

Substrate in data set [3]: CC(=O)SCCNC(=O)CCNC(=O)[C@H](O)C(C)(C)COP(=O)(O)OP(=O)(O)OC[C@H]1O[C@@H](n2cnc3c(N)ncnc32)[C@H](O)[C@@H]1OP(=O)(O)O
Type of data set: biochemical, Thermochaetoides thermophila. An excerpt: colorimetric DTNB acetylation assay, Michaelis-Menten on CtNaa50_1-289 (ΔC)
The source holds these as a separate data set.

Substrate in data set [4]: CC(=O)SCCNC(=O)CCNC(=O)[C@H](O)C(C)(C)COP(=O)(O)OP(=O)(O)OC[C@H]1O[C@@H](n2cnc3c(N)ncnc32)[C@H](O)[C@@H]1OP(=O)(O)O
Format: biochemical, Neurospora crassa. An excerpt: colorimetric DTNB acetylation assay, Michaelis-Menten on NcNaa50_93-287 (GNAT)

Substrate in data set [5]: CC(=O)SCCNC(=O)CCNC(=O)[C@H](O)C(C)(C)COP(=O)(O)OP(=O)(O)OC[C@H]1O[C@@H](n2cnc3c(N)ncnc32)[C@H](O)[C@@H]1OP(=O)(O)O
Format: biochemical, Thermochaetoides thermophila. An excerpt:
colorimetric DTNB acetylation assay, Michaelis-Menten on CtNaa50_82-445 (ΔN)
The source holds these as a separate data set.

B1: CtNaa50_82-289 (GNAT) (Thermochaetoides thermophila DSM 1495) (protein)
chain: LPSGASIVPLAQEHIPALRRINSLLLPVAYPDSFYHKALDPLASGLFSRAILWQDTNADPPKVVGGLICRLEPNPFLSVTGEPTPVQLPADQPQRAPQAPKDTPFHAIYIQSLALLSPYRSLGLAAAALDHIIATAAVLPAAGSNIDARTIYAHVWTENEEGLKWYESRGFVKEGGEPVKGYYFKLRPDTAWIVRRHIGESAKLNDVV
notes: GNAT domain, residues 82-289, C-terminal His6 kept, E. coli; full-length 445 residues; one molecule per asymmetric unit
For the protein B1, in data set [1], the Km worked out at 52.7 ± 8.6 µM, the kcat was 0.607 ± 0.03 s⁻¹ and the kcat/Km is 11500 ± 2000 M⁻¹ s⁻¹.

B2: CtNaa50_82-289 (GNAT) (Thermochaetoides thermophila DSM 1495; H235A) (protein)
chain: LPSGASIVPLAQEHIPALRRINSLLLPVAYPDSFYHKALDPLASGLFSRAILWQDTNADPPKVVGGLICRLEPNPFLSVTGEPTPVQLPADQPQRAPQAPKDTPFHAIYIQSLALLSPYRSLGLAAAALDHIIATAAVLPAAGSNIDARTIYAAVWTENEEGLKWYESRGFVKEGGEPVKGYYFKLRPDTAWIVRRHIGESAKLNDVV
notes: as for B1
Regarding B2, in data set [1], the Km was determined as 15.3 ± 3.1 µM, the kcat turned out to be 0.0233 ± 0.00167 s⁻¹ and the kcat/Km came out at 1500 ± 333 M⁻¹ s⁻¹.

B3: CtNaa50_82-289 (GNAT) (Thermochaetoides thermophila DSM 1495; Y190F) (protein)
chain: LPSGASIVPLAQEHIPALRRINSLLLPVAYPDSFYHKALDPLASGLFSRAILWQDTNADPPKVVGGLICRLEPNPFLSVTGEPTPVQLPADQPQRAPQAPKDTPFHAIFIQSLALLSPYRSLGLAAAALDHIIATAAVLPAAGSNIDARTIYAHVWTENEEGLKWYESRGFVKEGGEPVKGYYFKLRPDTAWIVRRHIGESAKLNDVV
notes: as for B1
In the case of B3, in data set [1], the Km stood at 22.0 ± 4.0 µM, the catalytic constant (kcat) came out at 0.0933 ± 0.005 s⁻¹ and the kcat/Km came to 4330 ± 833 M⁻¹ s⁻¹.

B4: CtNaa50_1-289/CtDLC1 complex (Thermochaetoides thermophila DSM 1495) (protein)
chain: MSASRQASIKSFFQPRGLPTHNTTFSSKTPPTDRATQTTTPPPVPPPAPAPPSHQPAAPEPITISVRLPPGGVPNLPSPPSLPSGASIVPLAQEHIPALRRINSLLLPVAYPDSFYHKALDPLASGLFSRAILWQDTNADPPKVVGGLICRLEPNPFLSVTGEPTPVQLPADQPQRAPQAPKDTPFHAIYIQSLALLSPYRSLGLAAAALDHIIATAAVLPAAGSNIDARTIYAHVWTENEEGLKWYESRGFVKEGGEPVKGYYFKLRPDTAWIVRRHIGESAKLNDVV
notes: CtNaa50 1-289 (S. cerevisiae, His-tag cut by TEV) co-purified with untagged CtDLC1 (E. coli); with putative dynein light chain 1 protein
As for B4, in data set [2], the Km was 30.4 ± 6.3 µM and the kcat is 0.357 ± 0.02 s⁻¹.

B5: CtNaa50_1-289 (ΔC) (Thermochaetoides thermophila DSM 1495) (protein)
chain: MSASRQASIKSFFQPRGLPTHNTTFSSKTPPTDRATQTTTPPPVPPPAPAPPSHQPAAPEPITISVRLPPGGVPNLPSPPSLPSGASIVPLAQEHIPALRRINSLLLPVAYPDSFYHKALDPLASGLFSRAILWQDTNADPPKVVGGLICRLEPNPFLSVTGEPTPVQLPADQPQRAPQAPKDTPFHAIYIQSLALLSPYRSLGLAAAALDHIIATAAVLPAAGSNIDARTIYAHVWTENEEGLKWYESRGFVKEGGEPVKGYYFKLRPDTAWIVRRHIGESAKLNDVV
notes: C-terminal deletion, residues 1-289, N-terminal His-tag removed by TEV, S. cerevisiae
For the protein B5, in data set [3], the Km was 31.9 ± 4.4 µM, the kcat was 0.272 ± 0.01 s⁻¹ and the kcat/Km turned out to be 8500 ± 1170 M⁻¹ s⁻¹.

B6: NcNaa50_93-287 (GNAT) (Neurospora crassa OR74A) (protein)
chain: SQANIVAVAEHHIAALRRINSLLLQVAYPDAFYAKVLEPLASGLFSRVILWSDDPTSEPKVIGGVVCRLEPNPFLDPNGQPQAPRIQQNQPGPSAPIDYPYHAIYIQSLALLSPYRSLGLAAAALEHIIASASILPAAGSTINVRTIYAHVWTENEEGLQWYGQRGFRTEGRDPVRGYYFKLRPDTAWIVRRDIG
notes: GNAT domain, residues 93-287, C-terminal His6, E. coli; full-length 494 residues
For B6, in data set [4], the Km came out at 146.9 ± 12.1 µM, the kcat stood at 1.6 ± 0.05 s⁻¹ and the kcat/Km amounted to 10800 ± 1000 M⁻¹ s⁻¹.

B7: CtNaa50_82-445 (ΔN) (Thermochaetoides thermophila DSM 1495) (protein)
chain: LPSGASIVPLAQEHIPALRRINSLLLPVAYPDSFYHKALDPLASGLFSRAILWQDTNADPPKVVGGLICRLEPNPFLSVTGEPTPVQLPADQPQRAPQAPKDTPFHAIYIQSLALLSPYRSLGLAAAALDHIIATAAVLPAAGSNIDARTIYAHVWTENEEGLKWYESRGFVKEGGEPVKGYYFKLRPDTAWIVRRHIGESAKLNDVVSQPQPQPQQQLQQQPAVDIAPTATSVLAAAVNLPPITSTPPPPSTGSKLPTSNTSTLASRPPPPLRSTSSSTSSATSLSYQNTRPPTEWNDIPPDMVAGPPIAARGRRVTAAAASDPAANGCSGTGSGASSRSASAAAGTGKKRKGRDYPTAAFGN
notes: N-terminal deletion, residues 82-445, E. coli
B7: in data set [5], the Km stood at 41.2 ± 6.1 µM, the kcat was found to be 0.398 ± 0.0167 s⁻¹ and the kcat/Km was 9670 ± 1500 M⁻¹ s⁻¹.
